Reference: a protein production outcome set (Wang et al. 2014)

Assay: label from the status in PepcDB records

Sequence	protein production
MSGSLARAAARPNAPTLVDEATVDDFIAHSGKIVVLFFRGDAVRFPEAADLAVVLPELINAFPGRLVAAEVAAEAERGLMARFGVAVCPSLAVVQPERTLGVIAKIQDWSSYLAQIGAMLAEVDQPGEAELQS	not failed
MSGSSHYPVANWNLDGIVSGLRGARQEWRGPRGRLREESESGVREFPSQESLRDIMRQLFGALFPMRLGPIDLREEVEDFYVGHTIGAALDALLHQVCLELQHLGRDDPQPYGQVLERAVDIVRRFGAELPAVRKALDLDVTAAYQGDPAARSVDEVLLCYPGVTAMIHHRLANVLYRLGAPMLARIVAEIAHSDTGIDIHPGATIGRSFFIDHGTGVVIGETAIIGERVRLYQMVTLGAKRFPPGENGELKKGLPRHPIIEDDVVIYAGATILGRITIGQGSTIGGNVWLTHSVPPNSTVTQAGAINDMPDCGLGGLEHHHHHH	failed
MSGTKLEDSPPCRNWSSASELNETQEPFLNPTDYDDEEFLRYLWREYLHPKEYEWVLIAGYIIVFVVALIGNVLVCVAVWKNHHMRTVTNYFIVNLSLADVLVTITCLPATLVVDITETWFFGQSLCKVIPYLQTVSVSVSVLTLSCIALDRWYAICHPLMFKSTAKRARNSIVIIWIVSCIIMIPQAIVMECSTVFPGLANKTTLFTVCDERWGGEIYPKMYHICFFLVTYMAPLCLMVLAYLQIFRKLWCRQIPGTSSVVQRKWKPLQPVSQPRGPGQPTKSRMSAVAAEIKQIRARRKTARMLMVVLLVFAICYLPISILNVLKRVFGMFAHTEDRETVYAWFTFSHWLVYANSAANPIIYNFLSGKFREEFKAAFSCCCLGVHHRQEDRLTRGRTSTESRKSLTTQISNFDNISKLSEQVVLTSISTLPAANGAGPLQNW	failed
MSGTLFTYRRKVDFGDCDSARIYFTPRAVDYAVEAVEAWFGDVLGVSWADLFLRHDLDVTFVRMGCEYFRPVIADQTVHVRVRATAVDRSSVTFSAAGEDDSGGVFFRATLVAQFRAGRNRAPVPIPPRYRERMEDCLEQADGKSGTVAQRVGGEPFLSRLQSDGVHFTVRRRVVYGDCTLSGTVYAPRLFNYAVEAVGEWYRETLGISWREQCIRLRGAPFREVWCERLAPLVPGQVITMTVGIPRLGKSSIGYEVVGYDDRGEPCFQVGMSACYISEETGSIKAIPFPDDMRSRILAYQVLCDQGVIPATAS	failed
MSHAKGFKKDYYGGTLMALVGLAAVMAGLQYHTGSLSHMGPGFFPVAVGALLAFVGVLIAVSARNDEPKEDKPSGHGHSHAAPDLRGTVCIVLGTLAFLLFGKYGGMIPATFAIVFISALGDRSNSIKQAFLLSIAMCVIAAVVFSWALQLQLPMFTWGA	failed
MSHAVANKTETEAAPNSSLKQSAAPQPANSHDAKLLNGTLARTNGLTHAASVATSSSGSYGSSSAAGSNAGSGGPTSSASLSIAAGVASSTALPLPPSSNGLQMPYERFRADDTSYVPIAQFYAGRSVFITGGTGFMGKVLVEKLLRSCPEIRNIYLLIRPKRGQEVSARLTELLNAPLFESLRQEKPKELSKVIPISGDITSEELGISEKDQNLLCRNVSVVFHSAATVKFDEKLKLSVTINMLGTKRLVELCHRMLSLDALIHVSTAYCNCDRTDVSEVIYAPPYNPDDIISLINWLPEDILDQLTPRLIGKRPNTYTFTKALAEHMLLKEAGNLPVAIVRPSIVTASLNEPFAGWVDNFNGPTGLVSALAKGMFRTMMCEKNYVADMVPVDIVINLMIAAAWRTATRKSNNLLIYNCCTGQRNPIIWSEFVKHAMTSVRKHPLEGCLWYPTGDLRMNRPMNTLNCIAKHFLPAYILDGVARIMGKKPFVVNVQNKIAKAVECLEYFATRQWRFKDDNVHALLHTLSPKDREIFVFDVRHINWDKYVERYVLGFREFLFKQRPESLPASRKRMLRLYYLHQLTKLVAVLLTWRFLMSRSKRLNDLWSSFLENALRMARLIPFL	failed
MSHAVVSWTLWSLALYLTLPYLSSAIEHSINNPLFVGPFYIISSGIGSLSLLALERHVKLLSTIGLALSGIGLLMIGVDANQLLTIIGFIFYNLYWLSVPIFYYLLSEEEGSLTKAWSISMVPAIIMPVIAGILIRWGEIIIFILGGLLQLTSSIILILVKHRIDEDHMVGYDVGIPKNVIFVVLPLSIVMPFLYLDVRESLIWVIYSSGQILGILMSWFLWKSKNAIMLSLIIFSGIIFSVFSPIGILFYGSSEALVALGIEKSRPSLMKHAIKVALTEALVWTVGYAVGSLLYYISGFLPFIYSSLVSLILAMIIGLFSSLTFNSVISKNPLKNTIPFKIVRYLTLREGIFPYFKIS	failed
MSHEVDELFDAEMLQQAKTLSAFMSVNSERLPEAGVIIESIGAHNYEDKLSYRIENTEELLLMQTEGAPDASAFEFIPGFSVKRVKDELWHAFGLENATGQRILMLQEDGFRSELRMDLTVDTVIPILLILPFMLWLGWWTINRNFSSFNRLAGELRRKRADDYTNFVEDNDREEVALVKRSLNHYINRIEQTFLREKRFSADAAHELRTPLASLKAQIQSRLGSATSEQQNELQPLLDSTERLVKLVESLLQLSKAELPPEQLKQVNVASVLRQVLADQYVAAESKGLSYHAQLPTVFQQTSDESYLYLLFANALDNAIKYAVPGSHIGIEVTENQIFVCNRVAADHVIDIDRITERFYRGKQLDVEGSGLGLSIVRNLAEQLGVQINFRHIDDEFCFIVTFDTDQ	failed
MSHFVHPNALCESDTIGEGTRVWAFAHVLPGARLGRDCNICDGVFIESDVVVGDRVTVKCGVQLWDGVRLGDDVFVGPNATFTNDLFPRSRVYPEKFLGTVVESGASIGANATILAGTTIGSGAMIGAGAVVTRSVPPNAIVVGNPARIVGYVSDKDATGSAPSPTGQGITDTAVPGVKLYRMPSFADMRGSLSVGDFETFLPFNAKRYFLVYGVPTQETRGEHAHKRCHQFLICVSGSVRVLADDGTRRIDVELNSPSQGIHLPPMIWGTQYKYSKDAVLLVFASESYDTDEYIRDYSDFKSLANAAR	failed
MSHIQRETSCSRPRLNSNLDADLYGYRWARDNVGQSGATIYRLYGKPNAPELFLKHGKGSVANDVTDEMVRLNWLTAFMPLPTIKHFIRTPDDAWLLTTAIPGKTAFQVLEEYPDSGENIVDALAVFLRRLHSIPVCNCPFNSDRVFRLAQAQSRMNNGLVDASDFDDERNGWPVEQVWKEMHKLLPFSPDSVVTHGDFSLDNLIFDEGKLIGCIDVGRVGIADRYQDLAILWNCLGEFSPSLQKRLFQKYGIDNPDMNKLQFHLMLDEFF	not failed
MSHRSPLRRLYPISAGGTAMRRSFAIGLTVLFLGNGAVMLAAPYPWYLAVPGVVLTGPFNDHFVRDVGAAYLACGVATALGAWNLRRHAGAVVVAATFQGLHAMIHLVTPFCGAGAPWLLLARDFPGVFLPTAATIWLAIAAFQPSEGEQK	failed
MSHRSPSVTPAVSVLIPAWNAVRHLPAALDGLLSQTFQDWEAVVVDDGSQDETPALLAAYAARDARIRPLHVEHGGIVHALNHGLLHVRGRHVARMDADDTCHPERLALQCHALDNAPHLGLVASRVTFGGDAAQCGGFVRYVDWTNSLLCHEDIALGRFRESPLVHPSVMFRRELIDRFGPYANGPFPEDYELWLRWLEAGVRMEKLPEHLLVWNDPPGRLTRTHDNYAEAGFVALRTRYLARWLCAHNPQHPDVWVIGAGKASRRRARPLCEHGIRIRAWVDIDPHKIGNIVEGLPVVGREAMPAPGQGFMLAFLAGHGAAEELELFLHGAGYLPGQDYLLASLEHHHHHH	not failed
MSHTKIMSTDQLETQITELDNLPEHREIVTFMRRSAPLNTSQRSALEQYQDLILEYPVGDLRQHFEHPEHPLTVEIGFGMGRSLVLMAKAHPERNFVGIEVHVPGIAQCVYEAGMAGLKNLRVLDADAIQVLREMPDNSINCVQLYFPDPWQKKRHFKRRFVIHERMQLVEQKLELGGTFHAATDWEPYAEWMLDVLDNRPALENLAGKGNSYPRPEWRPQTKFERRGIESGHKINDFIFKKIGS	failed
MSIDLKKRKVEEDVRSRGKNSKIFSPFRIIGNVSNGVPFATGTLGSTFYIVTCVGKTFQIYDANTLHLLFVSEKETPSSIVALSAHFHYVYAAYENKVGIYKRGIEEHLLELETDANVEHLCIFGDYLCASTDDNSIFIYKKSDPQDKYPSEFYTKLTVTEIQGGEIVSLQHLATYLNKLTVVTKSNVLLFNVRTGKLVFTSNEFPDQITTAEPAPVLDIIALGTVTGEVIMFNMRKGKRIRTIKIPQSRISSLSFRTDGSSHLSVGTSSGDLIFYDLDRRSRIHVLKNIHRESYGGVTQATFLNGQPIIVTSGGDNSLKEYVFDPSLSQGSGDVVVQPPRYLRSRGGHSQPPSYIAFADSQSHFMLSASKDRSLWSFSLRKDAQSQEMSQRLHKKQDGGRVGGSTIKSKFPEIVALAIENARIGEWENIITAHKDEKFARTWDMRNKRVGRWTFDTTDDGFVKSVAMSQCGNFGFIGSSNGSITIYNMQSGILRKKYKLHKRAVTGISLDGMNRKMVSCGLDGIVGFYDFNKSTLLGKLKLDAPITAMVYHRSSDLFALALDDLSIVVIDAVTQRVVRQLWGHSNRITAFDFSPEGRWIVSASLDSTIRTWDLPTGGCIDGIIVDNVATNVKFSPNGDLLATTHVTGNGICIWTNRAQFKTVSTRTIDESEFARMALPSTSVRGNDSMLSGALESNGGEDLNDIDFNTYTSLEQIDKELLTLSIGPRSKMNTLLHLDVIRKRSKPKEAPKKSEKLPFFLQLSGEKVGDEASVREGIAHETPEEIHRRDQEAQKKLDAEEQMNKFKVTGRLGFESHFTKQLREGSQSKDYSSLLATLINFSPAAVDLEIRSLNSFEPFDEIVWFIDALTQGLKSNKNFELYETFMSLLFKAHGDVIHANNKNQDIASALQNWEDVHKKEDRLDDLVKFCMGVAAFVTTA	failed
MSIEIRKLSIEDLETLIEVARESWKWTYAGIYSEEYIESWIREKYSKEKLLNEIVRSQSNLDILFLGAFADSTLIGFIELKIIANKAELLRLYLKPEYTHKKIGKTLLLEAEKIMKKKGILECRLYVHRQNSVGFSFYYKNGFKVEDTDGSDFIMEKKY	not failed
MSIENLSSNKSFGGWHKQYSHVSNTLNCAMRFAIYLPPQASTGAKVPVLYWLSGLTCSDENFMQKAGAQRLAAELGIAIVAPDTSPRGEGVADDEGYDLGQGAGFYVNATQAPWNRHYQMYDYVVNELPELIESMFPVSDKRAIAGHSMGGHGALTIALRNPERYQSVSAFSPINNPVNCPWGQKAFTAYLGKDTDTWREYDASLLMRAAKQYVPALVDQGEADNFLAEQLKPEVLEAAASSNNYPLELRSHEGYDHSYYFIASFIEDHLRFHSNYLNA	not failed
MSIEPVFILVRPQMGENIGAAARAMLNFGLGRLRIVDPRDGWPNPKAVAMASGAGRLLDHAGLFPTVAEAIRDCDYVFATTARGRELTKPVMTPERAMAHGRALTGEGRRVGILFGPERTGLENEDVALANAIVTVPVNPEFFSLNLAQCVLLLAYEWRRQHDETPPEVIDMARVDFASGLEVEKLGDHFEEKLEAAGFFFPPEKAPGMKLNLRNMWARLPLTRADVQTLHGMLRQIAWKLKQ	not failed
MSIEVIAVRLTKGMDLKLSLAKLVAEHDIKAGSIASCVGCISDLNLRLAGAESTLTKREPFEIVSVMGTLTPEHQHVHISVSDREGRVWGGHLLEGTVIDTTAELIIHSYSELEFTRAMDDSTGYTELQVNPSKLEHHHHHH	not failed
MSIEYKSEAAAVRRFPGSIVVMGVSGSGKSSVGEAIAEACGYPFIEGDALHPPENIRKMSEGIPLTDDDRWPWLAAIGERLASREPVVVSCSALKRSYRDKLRESAPGGLAFVFLHGSESVLAERMHHRTGHFMPSSLLQTQLETLEDPRGEVRTVAVDVAQPLAEIVREALAGLARL	not failed
MSIKILSESEIKQVANSYQAPAVLFANPKNLYQRRAKRLRDLAQNHPLSDYLLFAADIVESQLSTLEKNPLPPQQLEQLNTIEPLNAKTFKRNSIWREYLTEILDEIKPKANEQIAATIEFLEKASSAELEEMANKLLAQEFNLVSSDKAVFIWAALSLYWLQAAQQIPHNSQVENAENLHHCPVCGSLPVASMVQIGTSQGLRYLHCNLCESEWNLVRAQCTNCNSHDKLEMWSLNEELALVRAETCGSCESYLKMMFQEKDPYVEPVADDLASIFLDIEMEEKGFARSGLNPFIFPAEEA	failed
